Assay [1] concerns the target T1, 表达在肿瘤细胞NALM-6表面的CD19 (UniProt P15391 20-556, limits assumed).
T1 construct: whole, on cells; also called CD19阳性细胞; NALM-6细胞
T1 sequence (looked up): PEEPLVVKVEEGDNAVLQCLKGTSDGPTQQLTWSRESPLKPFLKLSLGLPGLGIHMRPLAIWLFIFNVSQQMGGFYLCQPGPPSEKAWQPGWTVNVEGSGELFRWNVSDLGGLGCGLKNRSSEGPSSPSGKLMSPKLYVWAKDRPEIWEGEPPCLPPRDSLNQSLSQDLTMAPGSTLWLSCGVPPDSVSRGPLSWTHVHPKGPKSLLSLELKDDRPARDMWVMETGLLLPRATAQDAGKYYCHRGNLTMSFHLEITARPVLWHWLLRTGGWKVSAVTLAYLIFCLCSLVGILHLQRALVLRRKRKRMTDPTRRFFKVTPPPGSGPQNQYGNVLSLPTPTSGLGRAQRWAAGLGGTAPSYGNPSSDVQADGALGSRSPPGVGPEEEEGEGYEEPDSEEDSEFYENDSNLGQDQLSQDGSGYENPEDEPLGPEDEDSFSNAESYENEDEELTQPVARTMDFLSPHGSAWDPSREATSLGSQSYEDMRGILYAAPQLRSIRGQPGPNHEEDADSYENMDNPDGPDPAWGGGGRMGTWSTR
Kind of assay: flow cytometry of scFv on NALM-6 cells, PE goat anti-human secondary. For orientation: In flow cytometry, cells or beads pass a laser one at a time.

Assay [2] concerns the target T2, CD19胞外区蛋白 (abcam, ab234966, 氨基酸序列编号第20位至291位) (UniProt P15391 20-291).
T2 construct: range 20-291; also called 变性的CD19重组蛋白; CD19重组蛋白
T2 sequence (looked up): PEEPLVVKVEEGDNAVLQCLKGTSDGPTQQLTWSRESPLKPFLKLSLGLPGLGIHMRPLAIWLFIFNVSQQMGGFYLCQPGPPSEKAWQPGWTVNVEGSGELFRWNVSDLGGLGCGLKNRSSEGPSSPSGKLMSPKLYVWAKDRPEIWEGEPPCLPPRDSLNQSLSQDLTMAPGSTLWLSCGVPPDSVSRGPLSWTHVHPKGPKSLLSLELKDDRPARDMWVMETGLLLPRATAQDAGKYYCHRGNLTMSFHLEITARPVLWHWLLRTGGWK
Kind of assay: western blot on reduced, denatured CD19 extracellular domain, antibody at 20μg/mL. For orientation: In western blotting, separated proteins are transferred to a membrane and probed.

Assay [3] concerns the target T3, CD19蛋白 (购自acro) (UniProt P15391 20-291).
T3 construct: also called 重组CD19蛋白 (ACRO, CD9-H52H2)
T3 sequence (looked up): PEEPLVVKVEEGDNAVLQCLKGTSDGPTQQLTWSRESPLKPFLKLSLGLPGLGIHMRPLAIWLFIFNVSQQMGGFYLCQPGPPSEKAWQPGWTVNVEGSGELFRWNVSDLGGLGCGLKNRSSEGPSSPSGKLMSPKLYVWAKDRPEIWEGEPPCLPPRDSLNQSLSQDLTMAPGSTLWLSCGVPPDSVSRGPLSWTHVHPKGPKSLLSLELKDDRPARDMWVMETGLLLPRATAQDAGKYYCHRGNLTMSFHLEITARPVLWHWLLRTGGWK
Kind of assay: ELISA, CD19 protein coated, antibody in twofold dilutions from 0.1mg/mL, OD450. In general terms: ELISA stands for enzyme-linked immunosorbent assay.

Assay [4] concerns the target T1, 表达在肿瘤细胞NALM-6表面的CD19. Kind of assay: flow cytometry on NALM-6 cells, FITC goat anti-mouse secondary.

Here are results for two molecules from patent CN111253487A (GUANGDONG HEC PHARMACEUTICAL, dated 2020).

B1: 10H10-1 scFv (单链抗体10H10-1) (scFv)
scFv: DIVMTQTPLSLPVSLGDQVSISCRSSQTLVYSNGDTYLEWYLQKPGQSPKLLIYKLSNRFSGVPDRFSGSGSGTDFTLKISRVESEDLGVYYCFQGSYFPFTFGAGTKLEIKGGGGSGGGGSGGGGSEVQLQQSGAELVRPGTSVKVSCKASGYAFTNYFIEWVIQRPGQGLEWIGVINPGNSNTNYNEKFKGKATLTADKSSSTAYMQLSSLTSDDSAVYFCARSGTTATTYAMDYWGQGTSVIVSS
notes: It was detected with PE-labelled goat anti-human antibody, and no tag or Fc is stated; also called CD19 scfv抗体 10H10-1
Take B1: the binding result in assay [1] is given as “binds”.

B2: 抗CD19鼠源抗体 10H10-1 (antibody, V domains shown)
VH: EVQLQQSGAELVRPGTSVKVSCKASGYAFTNYFIEWVIQRPGQGLEWIGVINPGNSNTNYNEKFKGKATLTADKSSSTAYMQLSSLTSDDSAVYFCARSGTTATTYAMDYWGQGTSVIVSS
VL: DIVMTQTPLSLPVSLGDQVSISCRSSQTLVYSNGDTYLEWYLQKPGQSPKLLIYKLSNRFSGVPDRFSGSGSGTDFTLKISRVESEDLGVYYCFQGSYFPFTFGAGTKLEIK
notes: Murine anti-CD19 antibody from a hybridoma
For B2, the binding result in assay [2], in assay [3] and in assay [4] was “binds” each time.
